Test results reported in patent publication US20220267436A1 (published 2022).
Values belong to the binder of their own block, whether it stands above or below them.

Columns and labels:
human CD47 = human CD47 (human, UniProt Q08722 19-323); test: flow
human LAG-3 [1] = target: T1, human LAG-3 (human, UniProt P18627 23-525); test: flow cytometry, CHO-K1 cells expressing human LAG-3; FIG. 1
T1 chain: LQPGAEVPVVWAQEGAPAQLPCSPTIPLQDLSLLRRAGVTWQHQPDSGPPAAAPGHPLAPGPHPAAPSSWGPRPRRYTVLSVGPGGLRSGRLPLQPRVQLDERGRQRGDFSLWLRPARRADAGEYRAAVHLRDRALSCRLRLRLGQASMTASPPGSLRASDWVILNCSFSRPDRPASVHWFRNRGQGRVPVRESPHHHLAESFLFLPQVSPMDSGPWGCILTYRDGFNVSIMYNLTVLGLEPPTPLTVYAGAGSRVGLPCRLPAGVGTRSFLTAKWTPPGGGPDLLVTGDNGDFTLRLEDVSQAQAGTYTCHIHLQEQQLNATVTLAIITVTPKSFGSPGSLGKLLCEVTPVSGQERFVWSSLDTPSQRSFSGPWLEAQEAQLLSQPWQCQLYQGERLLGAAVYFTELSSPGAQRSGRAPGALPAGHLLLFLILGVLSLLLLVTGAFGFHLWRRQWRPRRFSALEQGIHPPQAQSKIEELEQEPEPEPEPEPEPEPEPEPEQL

human LAG-3 [2] = target: T1, human LAG-3; test: flow cytometry, CHO-K1 cells expressing human LAG-3; FIG. 2

human CD47, sequence (Q08722 19-323): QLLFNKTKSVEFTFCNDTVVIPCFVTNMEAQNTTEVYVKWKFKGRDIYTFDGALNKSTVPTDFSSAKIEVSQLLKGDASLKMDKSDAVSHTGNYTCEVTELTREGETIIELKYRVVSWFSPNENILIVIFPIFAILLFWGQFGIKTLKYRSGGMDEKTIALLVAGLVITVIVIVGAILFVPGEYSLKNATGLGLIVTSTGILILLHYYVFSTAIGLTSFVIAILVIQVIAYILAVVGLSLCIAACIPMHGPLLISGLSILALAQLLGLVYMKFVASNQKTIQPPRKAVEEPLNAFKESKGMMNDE

B1: bispecific antibody LAG3-E-HC (bispecific antibody)
heavy: not shown
light: EIVLTQSPATLSLSPGERATLSCRASENVGTYISWYQQKPGQAPRLLIYGASNRYTGIPARFSGSGSGTDFTLTISSLEPEDFAVYYCGESYGHLYTFGGGTKVEIKRTVAAPSVFIFPPSDEQLKSGTASVVCLLNNFYPREAKVQWKVDNALQSGNSQESVTEQDSKDSTYSLSSTLTLSKADYEKHKVYACEVTHQGLSSPVTKSFNRGEC
EC50 (human CD47): 1.17 nM | EC50 (human LAG-3 [1]): 0.8 nM

B2: bispecific antibody LAG3-E-HN (bispecific antibody)
heavy: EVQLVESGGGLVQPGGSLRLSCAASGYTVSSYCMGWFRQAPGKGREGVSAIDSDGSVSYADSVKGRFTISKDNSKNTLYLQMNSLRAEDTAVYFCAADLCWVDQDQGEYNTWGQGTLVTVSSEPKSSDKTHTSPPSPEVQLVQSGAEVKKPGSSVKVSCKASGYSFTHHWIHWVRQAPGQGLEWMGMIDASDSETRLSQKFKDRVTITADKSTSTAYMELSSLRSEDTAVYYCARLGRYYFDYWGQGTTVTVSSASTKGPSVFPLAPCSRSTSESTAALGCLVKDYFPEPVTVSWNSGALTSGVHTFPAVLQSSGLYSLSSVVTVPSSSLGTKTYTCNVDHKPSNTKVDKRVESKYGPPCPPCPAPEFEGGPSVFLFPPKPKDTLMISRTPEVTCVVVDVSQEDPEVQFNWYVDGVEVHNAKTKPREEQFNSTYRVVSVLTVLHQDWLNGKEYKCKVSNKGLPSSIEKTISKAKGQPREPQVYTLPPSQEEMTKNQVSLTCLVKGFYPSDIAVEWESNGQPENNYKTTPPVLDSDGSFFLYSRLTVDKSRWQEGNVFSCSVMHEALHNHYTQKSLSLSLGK
light: B1 light
EC50 (human CD47): 4.44 nM | EC50 (human LAG-3 [1]): 0.526 nM

B4: bispecific antibody LAG3-G9-HC (bispecific antibody)
heavy: not shown
light: B1 light
EC50 (human CD47): 0.865 nM | EC50 (human LAG-3 [1]): 0.602 nM

B7: bispecific antibody LAG3-E-LN (bispecific antibody)
heavy: not shown
light: EVQLVESGGGLVQPGGSLRLSCAASGYTVSSYCMGWFRQAPGKGREGVSAIDSDGSVSYADSVKGRFTISKDNSKNTLYLQMNSLRAEDTAVYFCAADLCWVDQDQGEYNTWGQGTLVTVSSEPKSSDKTHTSPPSPEIVLTQSPATLSLSPGERATLSCRASENVGTYISWYQQKPGQAPRLLIYGASNRYTGIPARFSGSGSGTDFTLTISSLEPEDFAVYYCGESYGHLYTFGGGTKVEIKRTVAAPSVFIFPPSDEQLKSGTASVVCLLNNFYPREAKVQWKVDNALQSGNSQESVTEQDSKDSTYSLSSTLTLSKADYEKHKVYACEVTHQGLSSPVTKSFNRGEC
EC50 (human LAG-3 [2]): 0.448 nM

B10: anti-CD47 monoclonal antibody (mAb) (antibody, V domains shown)
VH: EVQLVQSGAEVKKPGSSVKVSCKASGYSFTHHWIHWVRQAPGQGLEWMGMIDASDSETRLSQKFKDRVTITADKSTSTAYMELSSLRSEDTAVYYCARLGRYYFDYWGQGTTVTVSS
VL: EIVLTQSPATLSLSPGERATLSCRASENVGTYISWYQQKPGQAPRLLIYGASNRYTGIPARFSGSGSGTDFTLTISSLEPEDFAVYYCGESYGHLYTFGGGTKVEIKR
EC50 (human CD47): 1.01 nM

B11: bispecific antibody LAG3-E-LC (bispecific antibody)
heavy: not shown
light: EIVLTQSPATLSLSPGERATLSCRASENVGTYISWYQQKPGQAPRLLIYGASNRYTGIPARFSGSGSGTDFTLTISSLEPEDFAVYYCGESYGHLYTFGGGTKVEIKRTVAAPSVFIFPPSDEQLKSGTASVVCLLNNFYPREAKVQWKVDNALQSGNSQESVTEQDSKDSTYSLSSTLTLSKADYEKHKVYACEVTHQGLSSPVTKSFNRGECEPKSSDKTHTSPPSPEVQLVESGGGLVQPGGSLRLSCAASGYTVSSYCMGWFRQAPGKGREGVSAIDSDGSVSYADSVKGRFTISKDNSKNTLYLQMNSLRAEDTAVYFCAADLCWVDQDQGEYNTWGQGTLVTVSS
EC50 (human LAG-3 [2]): 0.552 nM

Further lines, results first:

EC50 (human CD47): 3.96 nM | EC50 (human LAG-3 [1]): 0.477 nM
B3: bispecific antibody LAG3-G9-HN (bispecific antibody)
heavy: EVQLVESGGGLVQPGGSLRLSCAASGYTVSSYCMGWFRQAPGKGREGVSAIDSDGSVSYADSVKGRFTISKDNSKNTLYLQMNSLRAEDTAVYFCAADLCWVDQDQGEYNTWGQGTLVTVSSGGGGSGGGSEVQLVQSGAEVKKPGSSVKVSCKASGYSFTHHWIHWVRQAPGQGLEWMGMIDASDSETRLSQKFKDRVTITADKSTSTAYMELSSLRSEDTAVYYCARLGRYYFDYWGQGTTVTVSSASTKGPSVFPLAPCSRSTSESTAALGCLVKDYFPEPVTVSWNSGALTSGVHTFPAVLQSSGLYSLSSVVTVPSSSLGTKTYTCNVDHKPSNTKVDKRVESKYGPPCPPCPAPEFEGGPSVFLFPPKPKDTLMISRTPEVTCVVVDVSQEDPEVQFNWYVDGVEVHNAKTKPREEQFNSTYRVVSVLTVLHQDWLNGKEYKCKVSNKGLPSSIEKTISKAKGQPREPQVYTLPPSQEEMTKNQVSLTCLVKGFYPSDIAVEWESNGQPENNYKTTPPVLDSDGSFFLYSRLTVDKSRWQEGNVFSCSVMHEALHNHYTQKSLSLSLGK
light: B1 light

EC50 (human CD47): 0.911 nM | EC50 (human LAG-3 [1]): 0.672 nM
B5: bispecific antibody LAG3-G15-HC (bispecific antibody)
heavy: not shown
light: B1 light

EC50 (human CD47): 3.85 nM | EC50 (human LAG-3 [1]): 0.57 nM
B6: bispecific antibody LAG3-G15-HN (bispecific antibody)
heavy: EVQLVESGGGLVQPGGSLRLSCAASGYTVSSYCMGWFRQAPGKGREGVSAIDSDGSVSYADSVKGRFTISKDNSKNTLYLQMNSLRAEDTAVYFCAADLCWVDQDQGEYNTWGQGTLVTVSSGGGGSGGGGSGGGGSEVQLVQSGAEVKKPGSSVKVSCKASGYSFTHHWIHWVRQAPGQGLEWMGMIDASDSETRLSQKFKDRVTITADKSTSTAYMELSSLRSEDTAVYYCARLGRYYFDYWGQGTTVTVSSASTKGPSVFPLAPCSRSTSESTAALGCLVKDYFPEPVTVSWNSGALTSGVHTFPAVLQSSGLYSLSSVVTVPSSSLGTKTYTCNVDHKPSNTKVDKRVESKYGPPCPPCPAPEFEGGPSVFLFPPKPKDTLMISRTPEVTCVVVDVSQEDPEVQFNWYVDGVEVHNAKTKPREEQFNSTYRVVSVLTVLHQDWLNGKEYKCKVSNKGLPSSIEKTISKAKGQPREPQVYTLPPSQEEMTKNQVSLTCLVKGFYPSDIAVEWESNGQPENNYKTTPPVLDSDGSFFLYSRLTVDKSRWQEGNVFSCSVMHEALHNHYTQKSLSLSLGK
light: B1 light

EC50 (human LAG-3 [2]): 0.535 nM
B8: bispecific antibody LAG3-G15-LN (bispecific antibody)
heavy: not shown
light: EVQLVESGGGLVQPGGSLRLSCAASGYTVSSYCMGWFRQAPGKGREGVSAIDSDGSVSYADSVKGRFTISKDNSKNTLYLQMNSLRAEDTAVYFCAADLCWVDQDQGEYNTWGQGTLVTVSSGGGGSGGGGSGGGGSEIVLTQSPATLSLSPGERATLSCRASENVGTYISWYQQKPGQAPRLLIYGASNRYTGIPARFSGSGSGTDFTLTISSLEPEDFAVYYCGESYGHLYTFGGGTKVEIKRTVAAPSVFIFPPSDEQLKSGTASVVCLLNNFYPREAKVQWKVDNALQSGNSQESVTEQDSKDSTYSLSSTLTLSKADYEKHKVYACEVTHQGLSSPVTKSFNRGEC

EC50 (human LAG-3 [2]): 0.322 nM
B9: bispecific antibody LAG3-G9-LN (bispecific antibody)
heavy: not shown
light: EVQLVESGGGLVQPGGSLRLSCAASGYTVSSYCMGWFRQAPGKGREGVSAIDSDGSVSYADSVKGRFTISKDNSKNTLYLQMNSLRAEDTAVYFCAADLCWVDQDQGEYNTWGQGTLVTVSSGGGGSGGGSEIVLTQSPATLSLSPGERATLSCRASENVGTYISWYQQKPGQAPRLLIYGASNRYTGIPARFSGSGSGTDFTLTISSLEPEDFAVYYCGESYGHLYTFGGGTKVEIKRTVAAPSVFIFPPSDEQLKSGTASVVCLLNNFYPREAKVQWKVDNALQSGNSQESVTEQDSKDSTYSLSSTLTLSKADYEKHKVYACEVTHQGLSSPVTKSFNRGEC
